The values that follow come from PMC10540216, “Activity Guided Azide-methyllysine Photo-trapping for Substrate Profiling of Lysine Demethylases” (Journal of the American Chemical Society, 2023).

Sequences and labels used below:
B1: SYVM_HUMAN (protein, UniProt Q5ST30 27-1063, looked up)
Valine--tRNA ligase, …: SVSTQSEPHGSPISRRNREAKQKRLREKQATLEAEIAGESKSPAESIKAWRPKELVLYEIPTKPGEKKDVSGPLPPAYSPRYVEAAWYPWWVREGFFKPEYQARLPQATGETFSMCIPPPNVTGSLHIGHALTVAIQDALVRWHRMRGDQVLWVPGSDHAGIATQAVVEKQLWKERGVRRHELSREAFLREVWQWKEAKGGEICEQLRALGASLDWDRECFTMDVGSSVAVTEAFVRLYKAGLLYRNHQLVNWSCALRSAISDIEVENRPLPGHTQLRLPGCPTPVSFGLLFSVAFPVDGEPDAEVVVGTTRPETLPGDVAVAVHPDDSRYTHLHGRQLRHPLMGQPLPLITDYAVQPHVGTGAVKVTPAHSPADAEMGARHGLSPLNVIAEDGTMTSLCGDWLQGLHRFVAREKIMSVLSEWGLFRGLQNHPMVLPICSRSGDVIEYLLKNQWFVRCQEMGARAAKAVESGALELSPSFHQKNWQHWFSHIGDWCVSRQLWWGHQIPAYLVVEDHAQGEEDCWVVGRSEAEAREVAAELTGRPGAELTLERDPDVLDTWFSSALFPFSALGWPQETPDLARFYPLSLLETGSDLLLFWVGRMVMLGTQLTGQLPFSKVLLHPMVRDRQGRKMSKSLGNVLDPRDIISGVEMQVLQEKLRSGNLDPAELAIVAAAQKKDFPHGIPECGTDALRFTLCSHGVQAGDLHLSVSEVQSCRHFCNKIWNALRFILNALGEKFVPQPAEELSPSSPMDAWILSRLALAAQECERGFLTRELSLVTHALHHFWLHNLCDVYLEAVKPVLWHSPRPLGPPQVLFSCADLGLRLLAPLMPFLAEELWQRLPPRPGCPPAPSISVAPYPSACSLEHWRQPELERRFSRVQEVVQVLRALRATYQLTKARPRVLLQSSEPGDQGLFEAFLEPLGTLGYCGAVGLLPPGAAAPSGWAQAPLSDTAQVYMELQGLVDPQIQLPLLAARRYKLQKQLDSLTARTPSEGEAGTQRQQKLSSLQLELSKLDKAASHLRQLMDEPPAPGSPEL
B2: DPOG1_HUMAN (protein, UniProt P54098 1-1239, looked up)
DNA polymerase subunit gamma-1: MSRLLWRKVAGATVGPGPVPAPGRWVSSSVPASDPSDGQRRRQQQQQQQQQQQQQPQQPQVLSSEGGQLRHNPLDIQMLSRGLHEQIFGQGGEMPGEAAVRRSVEHLQKHGLWGQPAVPLPDVELRLPPLYGDNLDQHFRLLAQKQSLPYLEAANLLLQAQLPPKPPAWAWAEGWTRYGPEGEAVPVAIPEERALVFDVEVCLAEGTCPTLAVAISPSAWYSWCSQRLVEERYSWTSQLSPADLIPLEVPTGASSPTQRDWQEQLVVGHNVSFDRAHIREQYLIQGSRMRFLDTMSMHMAISGLSSFQRSLWIAAKQGKHKVQPPTKQGQKSQRKARRGPAISSWDWLDISSVNSLAEVHRLYVGGPPLEKEPRELFVKGTMKDIRENFQDLMQYCAQDVWATHEVFQQQLPLFLERCPHPVTLAGMLEMGVSYLPVNQNWERYLAEAQGTYEELQREMKKSLMDLANDACQLLSGERYKEDPWLWDLEWDLQEFKQKKAKKVKKEPATASKLPIEGAGAPGDPMDQEDLGPCSEEEEFQQDVMARACLQKLKGTTELLPKRPQHLPGHPGWYRKLCPRLDDPAWTPGPSLLSLQMRVTPKLMALTWDGFPLHYSERHGWGYLVPGRRDNLAKLPTGTTLESAGVVCPYRAIESLYRKHCLEQGKQQLMPQEAGLAEEFLLTDNSAIWQTVEELDYLEVEAEAKMENLRAAVPGQPLALTARGGPKDTQPSYHHGNGPYNDVDIPGCWFFKLPHKDGNSCNVGSPFAKDFLPKMEDGTLQAGPGGASGPRALEINKMISFWRNAHKRISSQMVVWLPRSALPRAVIRHPDYDEEGLYGAILPQVVTAGTITRRAVEPTWLTASNARPDRVGSELKAMVQAPPGYTLVGADVDSQELWIAAVLGDAHFAGMHGCTAFGWMTLQGRKSRGTDLHSKTATTVGISREHAKIFNYGRIYGAGQPFAERLLMQFNHRLTQQEAAEKAQQMYAATKGLRWYRLSDEGEWLVRELNLPVDRTEGGWISLQDLRKVQRETARKSQWKKWEVVAERAWKGGTESEMFNKLESIATSDIPRTPVLGCCISRALEPSAVQEEFMTSRVNWVVQSSAVDYLHLMLVAMKWLFEEFAIDGRFCISIHDEVRYLVREEDRYRAALALQITNLLTRCMFAYKLGLNDLPQSVAFFSAVDIDRCLRKEVTMDCKTPSNPTGMERRYGIPQGEALDIYQIIELTKGSLEKRSQPGP
B3: NU133_HUMAN (protein, UniProt Q8WUM0 1-1156, looked up)
Nuclear pore complex protein …: MFPAAPSPRTPGTGSRRGPLAGLGPGSTPRTASRKGLPLGSAVSSPVLFSPVGRRSSLSSRGTPTRMFPHHSITESVNYDVKTFGSSLPVKVMEALTLAEVDDQLTINIDEGGWACLVCKEKLIIWKIALSPITKLSVCKELQLPPSDFHWSADLVALSYSSPSGEAHSTQAVAVMVATREGSIRYWPSLAGEDTYTEAFVDSGGDKTYSFLTAVQGGSFILSSSGSQLIRLIPESSGKIHQHILPQGQGMLSGIGRKVSSLFGILSPSSDLTLSSVLWDRERSSFYSLTSSNISKWELDDSSEKHAYSWDINRALKENITDAIWGSESNYEAIKEGVNIRYLDLKQNCDGLVILAAAWHSADNPCLIYYSLITIEDNGCQMSDAVTVEVTQYNPPFQSEDLILCQLTVPNFSNQTAYLYNESAVYVCSTGTGKFSLPQEKIVFNAQGDSVLGAGACGGVPIIFSRNSGLVSITSRENVSILAEDLEGSLASSVAGPNSESMIFETTTKNETIAQEDKIKLLKAAFLQYCRKDLGHAQMVVDELFSSHSDLDSDSELDRAVTQISVDLMDDYPASDPRWAESVPEEAPGFSNTSLIILHQLEDKMKAHSFLMDFIHQVGLFGRLGSFPVRGTPMATRLLLCEHAEKLSAAIVLKNHHSRLSDLVNTAILIALNKREYEIPSNLTPADVFFREVSQVDTICECLLEHEEQVLRDAPMDSIEWAEVVINVNNILKDMLQAASHYRQNRNSLYRREESLEKEPEYVPWTATSGPGGIRTVIIRQHEIVLKVAYPQADSNLRNIVTEQLVALIDCFLDGYVSQLKSVDKSSNRERYDNLEMEYLQKRSDLLSPLLSLGQYLWAASLAEKYCDFDILVQMCEQTDNQSRLQRYMTQFADQNFSDFLFRWYLEKGKRGKLLSQPISQHGQLANFLQAHEHLSWLHEINSQELEKAHATLLGLANMETRYFAKKKTLLGLSKLAALASDFSEDMLQEKIEEMAEQERFLLHQETLPEQLLAEKQLNLSAMPVLTAPQLIGLYICEENRRANEYDFKKALDLLEYIDEEEDININDLKLEILCKALQRDNWSSSDGKDDPIEVSKDSIFVKILQKLLKDGIQLSEYLPEVKDLLQADQLGSLKSNPYFEFVLKANYEYYVQGQI

For this test, the system named is KDM4A-I71AzF. The experiment in a line: CASI: photo-crosslinking with HEK293T cell extracts, StrepTactin enrichment and LC-MS/MS proteomics.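 Further: lysates from HEK293T cells pretreated with a KDM4 inhibitor to raise proteome methylation, affinity-purified after ±UV, gel-resolved, trypsin-digested, with exclusive unique peptides per protein averaged per condition.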 The test is classed as binding, human. The settings on record: sheet "Final results but with 0.01".
B1: the “Fold change (+UV/-UV)” value is reported as 0.5.
In the case of B2, the “Fold change (+UV/-UV)” value was 0.
To B3 belongs 0.8.
